These results are taken from the supplement of paper PMC9112550, “Optimization of the antimicrobial peptide Bac7 by deep mutational scanning” (BMC Biology, 2022).
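Further: peptides expressed intracellularly from a pBAD plasmid library in pooled LB shake-flask culture, induced with 0.3% L-arabinose, DNA abundance read by NGS, three biological replicates, DESeq2 with apeglm shrinkage.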

This data set concerns Escherichia coli TOP10. Kind of data set: shrunken log2 fold change of peptide-encoding DNA abundance (4.5 h post-induction vs induction); higher = less antimicrobial activity (less host growth inhibition). The conditions noted are these: time post-induction: 4.5 h; library: site-saturation at positions 5, 18, 19, 20.
Consider RRIRARPPRLPRPRPRPLFFPRP, for which the “shrunken log2 fold change” value amounted to 0.577.

RRIRARPPRLPRPRPRPRMCPRP: the “shrunken log2 fold change” value was 0.339.

For the sequence RRIRKRPPRLPRPRPRPQLDPRP, the “shrunken log2 fold change” value came out at 0.207.

As to RRIRSRPPRLPRPRPRPQYPPRP, the “shrunken log2 fold change” value is -0.157.

RRIRPRPPRLPRPRPRPCCGPRP: the “shrunken log2 fold change” value was -0.0386.

Regarding RRIRVRPPRLPRPRPRPCLYPRP, the “shrunken log2 fold change” value was -0.0189.

In the case of RRIRCRPPRLPRPRPRPGHFPRP, the “shrunken log2 fold change” value is -0.217.

As to RRIRDRPPRLPRPRPRPTHCPRP, the “shrunken log2 fold change” value was 0.0452.

In the case of RRIRARPPRLPRPRPRPVNSPRP, the “shrunken log2 fold change” value was -0.0786.

As for RRIRCRPPRLPRPRPRPEGAPRP, the “shrunken log2 fold change” value turned out to be 0.766.

Take RRIRERPPRLPRPRPRPQRYPRP: the “shrunken log2 fold change” value was -0.222.

Consider RRIRQRPPRLPRPRPRPNRQPRP, for which the “shrunken log2 fold change” value amounted to 0.0872.

RRIRRRPPRLPRPRPRPGFYPRP: the “shrunken log2 fold change” value is -0.107.

Turning to RRIRCRPPRLPRPRPRPITIPRP, the “shrunken log2 fold change” value is -0.261.

RRIRARPPRLPRPRPRPVDIPRP: the “shrunken log2 fold change” value was determined as 0.135.

Take RRIRNRPPRLPRPRPRPCWWPRP: the “shrunken log2 fold change” value amounted to 0.0782.

On to RRIRVRPPRLPRPRPRPLLVPRP, for which the “shrunken log2 fold change” value was -0.101.

RRIRRRPPRLPRPRPRPHDRPRP: the “shrunken log2 fold change” value worked out at 0.103.

For RRIRVRPPRLPRPRPRPCTVPRP, the “shrunken log2 fold change” value is -0.14.

Consider RRIRSRPPRLPRPRPRPNNCPRP, for which the “shrunken log2 fold change” value was -0.186.

Turning to RRIRRRPPRLPRPRPRPRHNPRP, the “shrunken log2 fold change” value is -0.14.

As for RRIRGRPPRLPRPRPRPSTAPRP, the “shrunken log2 fold change” value was determined as 0.926.

With RRIRHRPPRLPRPRPRPSDMPRP, the “shrunken log2 fold change” value stood at 2.66.

For RRIRPRPPRLPRPRPRPWTPPRP, the “shrunken log2 fold change” value stood at 0.0256.

RRIRRRPPRLPRPRPRPRQFPRP: the “shrunken log2 fold change” value was found to be 0.225.

For the sequence RRIRYRPPRLPRPRPRPMLKPRP, the “shrunken log2 fold change” value was -0.374.

For the sequence RRIRTRPPRLPRPRPRPDSHPRP, the “shrunken log2 fold change” value was -0.153.

For RRIRRRPPRLPRPRPRPRTFPRP, the “shrunken log2 fold change” value worked out at 0.338.

As to RRIRTRPPRLPRPRPRPKVPPRP, the “shrunken log2 fold change” value is -0.0154.

With RRIRKRPPRLPRPRPRPFTLPRP, the “shrunken log2 fold change” value came to 0.0269.

In the case of RRIRFRPPRLPRPRPRPLWDPRP, the “shrunken log2 fold change” value was -0.119.

With RRIRIRPPRLPRPRPRPKPLPRP, the “shrunken log2 fold change” value is -0.191.

For the sequence RRIRHRPPRLPRPRPRPYTWPRP, the “shrunken log2 fold change” value was -1.02.

As to RRIRYRPPRLPRPRPRPDYIPRP, the “shrunken log2 fold change” value is -0.0327.

For the sequence RRIRARPPRLPRPRPRPYMIPRP, the “shrunken log2 fold change” value is -0.494.

Consider RRIRSRPPRLPRPRPRPYKVPRP, for which the “shrunken log2 fold change” value is -0.0179.

Consider RRIRRRPPRLPRPRPRPTMGPRP, for which the “shrunken log2 fold change” value is 0.0489.

Consider RRIRMRPPRLPRPRPRPNIDPRP, for which the “shrunken log2 fold change” value is -0.764.

For the sequence RRIRARPPRLPRPRPRPQPIPRP, the “shrunken log2 fold change” value is 0.16.

Regarding RRIRNRPPRLPRPRPRPVLTPRP, the “shrunken log2 fold change” value was -0.235.

Take RRIRIRPPRLPRPRPRPPDPPRP: the “shrunken log2 fold change” value was 0.243.

Regarding RRIRQRPPRLPRPRPRPWCDPRP, the “shrunken log2 fold change” value is -0.191.

Turning to RRIRWRPPRLPRPRPRPWHEPRP, the “shrunken log2 fold change” value is 0.356.

As to RRIRCRPPRLPRPRPRPRECPRP, the “shrunken log2 fold change” value was -0.146.

With RRIRVRPPRLPRPRPRPTIAPRP, the “shrunken log2 fold change” value worked out at 0.335.

As to RRIRYRPPRLPRPRPRPSSTPRP, the “shrunken log2 fold change” value is -0.158.

As for RRIRVRPPRLPRPRPRPHMEPRP, the “shrunken log2 fold change” value is -0.0402.

As to RRIRHRPPRLPRPRPRPSKPPRP, the “shrunken log2 fold change” value came out at 0.00696.

Turning to RRIRMRPPRLPRPRPRPKCYPRP, the “shrunken log2 fold change” value was -0.0362.

On to RRIRVRPPRLPRPRPRPACNPRP, for which the “shrunken log2 fold change” value is -0.0138.

For RRIRTRPPRLPRPRPRPPGQPRP, the “shrunken log2 fold change” value amounted to 0.622.

On to RRIRKRPPRLPRPRPRPSGWPRP, for which the “shrunken log2 fold change” value is -0.146.

With RRIRWRPPRLPRPRPRPRYIPRP, the “shrunken log2 fold change” value is -0.665.

Consider RRIRHRPPRLPRPRPRPQRYPRP, for which the “shrunken log2 fold change” value was -0.0589.

RRIRPRPPRLPRPRPRPEDVPRP: the “shrunken log2 fold change” value is -0.0168.

Turning to RRIRERPPRLPRPRPRPVHFPRP, the “shrunken log2 fold change” value turned out to be 0.0364.

As for RRIRLRPPRLPRPRPRPMEAPRP, the “shrunken log2 fold change” value is -0.00122.

Take RRIRCRPPRLPRPRPRPNCHPRP: the “shrunken log2 fold change” value is -0.314.

RRIRARPPRLPRPRPRPVYMPRP: the “shrunken log2 fold change” value is -0.436.

Consider RRIRQRPPRLPRPRPRPLYWPRP, for which the “shrunken log2 fold change” value was -0.11.

In the case of RRIRGRPPRLPRPRPRPYYMPRP, the “shrunken log2 fold change” value was -0.238.

Turning to RRIRKRPPRLPRPRPRPEPKPRP, the “shrunken log2 fold change” value came to 0.191.

With RRIRLRPPRLPRPRPRPIQPPRP, the “shrunken log2 fold change” value came to 0.0112.

RRIRLRPPRLPRPRPRPVNTPRP: the “shrunken log2 fold change” value was -0.186.

RRIRPRPPRLPRPRPRPRYLPRP: the “shrunken log2 fold change” value was -0.402.

With RRIRKRPPRLPRPRPRPLLRPRP, the “shrunken log2 fold change” value is 0.477.

For the sequence RRIRGRPPRLPRPRPRPDYSPRP, the “shrunken log2 fold change” value is -0.0453.

As for RRIRRRPPRLPRPRPRPDYGPRP, the “shrunken log2 fold change” value is -0.28.

On to RRIRKRPPRLPRPRPRPDFCPRP, for which the “shrunken log2 fold change” value stood at 0.129.

For RRIRTRPPRLPRPRPRPCYVPRP, the “shrunken log2 fold change” value is -0.89.

Regarding RRIRSRPPRLPRPRPRPAIMPRP, the “shrunken log2 fold change” value is -0.152.

Regarding RRIRPRPPRLPRPRPRPDTGPRP, the “shrunken log2 fold change” value was 0.128.

Consider RRIRHRPPRLPRPRPRPVEEPRP, for which the “shrunken log2 fold change” value was determined as 0.00298.

For RRIRHRPPRLPRPRPRPLPYPRP, the “shrunken log2 fold change” value was -0.137.

For the sequence RRIRTRPPRLPRPRPRPPKAPRP, the “shrunken log2 fold change” value is 0.0856.

For RRIRFRPPRLPRPRPRPIENPRP, the “shrunken log2 fold change” value was -0.193.

For the sequence RRIRKRPPRLPRPRPRPFPMPRP, the “shrunken log2 fold change” value was 0.0227.

RRIRYRPPRLPRPRPRPGIMPRP: the “shrunken log2 fold change” value stood at 0.0185.

Turning to RRIRLRPPRLPRPRPRPGTRPRP, the “shrunken log2 fold change” value was found to be 0.309.

As for RRIRIRPPRLPRPRPRPNMTPRP, the “shrunken log2 fold change” value was -0.804.

RRIRKRPPRLPRPRPRPLEGPRP: the “shrunken log2 fold change” value turned out to be 0.162.

Take RRIRKRPPRLPRPRPRPAQDPRP: the “shrunken log2 fold change” value is 0.679.

As to RRIRWRPPRLPRPRPRPKCKPRP, the “shrunken log2 fold change” value turned out to be 0.0552.

RRIRPRPPRLPRPRPRPFTAPRP: the “shrunken log2 fold change” value is -0.332.

Consider RRIRQRPPRLPRPRPRPLQGPRP, for which the “shrunken log2 fold change” value is 0.0512.

Regarding RRIRTRPPRLPRPRPRPHSEPRP, the “shrunken log2 fold change” value was -0.0681.

For RRIRHRPPRLPRPRPRPVQAPRP, the “shrunken log2 fold change” value stood at 0.00472.

On to RRIRVRPPRLPRPRPRPTDYPRP, for which the “shrunken log2 fold change” value is -0.479.

With RRIRGRPPRLPRPRPRPKIDPRP, the “shrunken log2 fold change” value came out at 0.372.

In the case of RRIRERPPRLPRPRPRPGIMPRP, the “shrunken log2 fold change” value was -0.738.

On to RRIRLRPPRLPRPRPRPMKPPRP, for which the “shrunken log2 fold change” value was -0.0332.

Take RRIRKRPPRLPRPRPRPAAQPRP: the “shrunken log2 fold change” value stood at 0.814.

In the case of RRIRIRPPRLPRPRPRPQCPPRP, the “shrunken log2 fold change” value is -0.472.

With RRIRWRPPRLPRPRPRPFTPPRP, the “shrunken log2 fold change” value was -0.0823.

Turning to RRIRYRPPRLPRPRPRPPLLPRP, the “shrunken log2 fold change” value is -0.385.

On to RRIRGRPPRLPRPRPRPMILPRP, for which the “shrunken log2 fold change” value was -0.0452.

RRIRNRPPRLPRPRPRPYIHPRP: the “shrunken log2 fold change” value is -0.387.

For the sequence RRIRIRPPRLPRPRPRPECQPRP, the “shrunken log2 fold change” value is -0.00158.

With RRIRCRPPRLPRPRPRPFHPPRP, the “shrunken log2 fold change” value was -0.075.

As for RRIRRRPPRLPRPRPRPIKKPRP, the “shrunken log2 fold change” value is 0.907.

For RRIRHRPPRLPRPRPRPSNIPRP, the “shrunken log2 fold change” value is -0.332.

As for RRIRPRPPRLPRPRPRPDRFPRP, the “shrunken log2 fold change” value is -0.137.

In the case of RRIRMRPPRLPRPRPRPSIHPRP, the “shrunken log2 fold change” value was -0.823.

With RRIRERPPRLPRPRPRPYEDPRP, the “shrunken log2 fold change” value is -0.0116.

For the sequence RRIRGRPPRLPRPRPRPNQKPRP, the “shrunken log2 fold change” value is 0.0822.

Consider RRIRIRPPRLPRPRPRPCCMPRP, for which the “shrunken log2 fold change” value is -0.614.

For the sequence RRIRWRPPRLPRPRPRPLITPRP, the “shrunken log2 fold change” value was found to be 0.0192.

As for RRIRNRPPRLPRPRPRPARTPRP, the “shrunken log2 fold change” value came to 0.139.

Regarding RRIRSRPPRLPRPRPRPKIHPRP, the “shrunken log2 fold change” value is -0.0501.

Turning to RRIRIRPPRLPRPRPRPTHYPRP, the “shrunken log2 fold change” value is -0.392.

In the case of RRIRTRPPRLPRPRPRPNTAPRP, the “shrunken log2 fold change” value was -0.0235.

Consider RRIRMRPPRLPRPRPRPRSHPRP, for which the “shrunken log2 fold change” value was determined as 0.407.

As to RRIRWRPPRLPRPRPRPQVNPRP, the “shrunken log2 fold change” value was determined as 0.141.

For the sequence RRIRWRPPRLPRPRPRPPDFPRP, the “shrunken log2 fold change” value was -0.087.

Consider RRIRARPPRLPRPRPRPHEHPRP, for which the “shrunken log2 fold change” value worked out at 0.0352.

On to RRIRMRPPRLPRPRPRPYMNPRP, for which the “shrunken log2 fold change” value is -0.737.

On to RRIRVRPPRLPRPRPRPRTPPRP, for which the “shrunken log2 fold change” value was found to be 0.555.

Regarding RRIRARPPRLPRPRPRPADDPRP, the “shrunken log2 fold change” value is 0.409.

RRIRYRPPRLPRPRPRPSQRPRP: the “shrunken log2 fold change” value was -0.0178.

As for RRIRPRPPRLPRPRPRPIVNPRP, the “shrunken log2 fold change” value was -0.166.

As for RRIRFRPPRLPRPRPRPPERPRP, the “shrunken log2 fold change” value was 0.891.

With RRIRNRPPRLPRPRPRPDKDPRP, the “shrunken log2 fold change” value was -0.253.

As to RRIRSRPPRLPRPRPRPVKIPRP, the “shrunken log2 fold change” value was -0.131.

Take RRIRKRPPRLPRPRPRPGAEPRP: the “shrunken log2 fold change” value stood at 1.26.

Turning to RRIRFRPPRLPRPRPRPDCTPRP, the “shrunken log2 fold change” value is -0.0512.
